The experiment addresses wild type human PKR, full length (aa 1-551) (human) (UniProt P19525). Kind of experiment: cell-based or functional assay.

wild type human PKR, full length (aa 1-551) (human), sequence (P19525 whole entry, the tested form may be a part): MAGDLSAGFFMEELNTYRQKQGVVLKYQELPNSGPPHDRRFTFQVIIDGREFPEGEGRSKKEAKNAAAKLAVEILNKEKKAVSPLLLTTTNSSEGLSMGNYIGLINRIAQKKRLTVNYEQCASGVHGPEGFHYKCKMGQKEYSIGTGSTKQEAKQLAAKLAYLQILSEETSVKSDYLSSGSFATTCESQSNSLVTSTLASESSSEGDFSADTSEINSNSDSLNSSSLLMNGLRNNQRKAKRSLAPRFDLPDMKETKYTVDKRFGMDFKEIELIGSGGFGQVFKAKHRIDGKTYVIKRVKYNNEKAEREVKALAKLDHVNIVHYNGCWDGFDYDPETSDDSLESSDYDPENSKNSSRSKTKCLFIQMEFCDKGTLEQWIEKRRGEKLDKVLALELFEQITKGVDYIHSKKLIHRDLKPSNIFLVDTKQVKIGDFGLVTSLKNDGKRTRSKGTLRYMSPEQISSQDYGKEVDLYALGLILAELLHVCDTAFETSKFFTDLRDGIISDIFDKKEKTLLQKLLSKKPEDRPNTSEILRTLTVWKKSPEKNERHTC

“NS5A 1b-2 (untagged, expressed from pYES-NS5A 1b-2)”: the fold decrease in plating efficiency of yeast RY1-1 on galactose medium is 10 to 100 fold.

The values are drawn from patent US7148006.
